Data: patent publication US5840867

Target: thrombin (UniProt P00734;P00734 P00734:328-363,P00734:364-622)
Assay: inhibition; fibrinogen clotting assay

Row | Binder | Ki
1 | GGTTGGTGTGGTTGG (ssDNA, PS linkages between 13-14 and 14-15) [15-mer with 3' thioates GGTTGGTGTGGTT*G*G] | 40 nM
2 | GGTTGGTGTGGTTGG (ssDNA, dU at positions 7 and 9 [n positions 7,9 = modified dU]) [15-mer GGTTGG(dU)G(dU)GGTTGG] | 15 nM
3 | GGTTGGTGTGGTTGG (ssDNA, dU at positions 3 and 12 [n positions 3,12 = modified dU]) [15-mer GG(dU)TGGTGTGG(dU)TGG] | 80 nM
4 | GGTTGGTGTGGTTGGGT (ssDNA, P(O)NH(CH2CH2OCH3) (MEA) linkages between 15-16 and 16-17) [17-mer with 3' MEA linkages GGTTGGTGTGGTTGG#G#T] | 35 nM
5 | GGTTGGTGTGGTTGG (ssDNA, 5-(1-pentynyl)uracil at position 13 [13 = 5-(1-pentynyl)uracil (dU analog written as T)]) [15-mer GGTTGGTGTGGTU'GG] | 20 nM
6 | GGTTGGTGTGGTTGG (ssDNA, PS at all linkages) [15-mer all thioate] | 280 nM
